In US20150147318A1 (ZOETIS SERVICES, published 2015):

What was measured:
[1] = molecular target: T1, recombinant canine Nerve Growth Factor (Canis lupus familiaris NGF) (canine (Canis lupus familiaris), UniProt Q29074 110-229 (pig entry), limits assumed); assay: SPR, Biacore T100, dog NGF; run 11/29
T1 construct: also called canine NGF; Dog NGF
T1 chain: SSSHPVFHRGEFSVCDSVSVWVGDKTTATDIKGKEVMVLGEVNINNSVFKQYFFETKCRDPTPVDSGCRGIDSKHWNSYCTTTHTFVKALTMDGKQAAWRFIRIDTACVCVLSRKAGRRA

[2] = molecular target: T1, recombinant canine Nerve Growth Factor …; assay: SPR, Biacore T100, dog NGF; run 11/24
[3] = molecular target: T1, recombinant canine Nerve Growth Factor …; assay: cell-based or functional assay
[4] = molecular target: T1, recombinant canine Nerve Growth Factor …; assay: SPR trkA inhibition: mAb pre-incubated with NGF, binding of NGF to trkA measured in RU
[5] = molecular target: T1, recombinant canine Nerve Growth Factor …; assay: method not stated; recombinant canine NGF

B1: LTM construct 45 (HC Y100W, LC H32N) (antibody, V domains shown)
VH: EVQLVESGGDLARPGGSLKLSCVVSGFSLIGYDINWVRQAPGKGLQWVTMIWGDGTTDYNSALKSRFTVSRDNAMNTVYLQMNSLRVEDTAVYYCARGGWYYGTSYYFDYWGQGTLVTVSS
VL: DIVMTQTPLSLSVSPGETASISCRASQDISNNLNWFRQKPGQSPQRLIYYISRFHSGVPDRFSGSGSGTDFTLRISRVEADDTGVYYCQQSKTLPYTFGAGTKLEIK
notes: Point mutant of canE3M65 as full IgG; Constant regions are not restated
Which results are given for B1?
Kd [1]: 4.35 nM; Kd [2]: 2.1 nM

B2: LTM109 (HC Y101W, G103A; LC D28S, H32N, K92H) (antibody, V domains shown)
VH: EVQLVESGGDLARPGGSLKLSCVVSGFSLIGYDINWVRQAPGKGLQWVTMIWGDGTTDYNSALKSRFTVSRDNAMNTVYLQMNSLRVEDTAVYYCARGGYWYATSYYFDYWGQGTLVTVSS
VL: DIVMTQTPLSLSVSPGETASISCRASQSISNNLNWFRQKPGQSPQRLIYYISRFHSGVPDRFSGSGSGTDFTLRISRVEADDTGVYYCQQSHTLPYTFGAGTKLEIK
notes: Full IgG; constant regions are not restated; also called CAN-LTM109-VH / CAN-LTM109-VL
Which Kd [1] does the source give for B2 here?
The Kd was 0.748 nM.

What about the Kd [2] of the same binder?
The Kd was 0.515 nM.

B3: murine anti-NGF monoclonal antibody RN911 (antibody, V domains shown)
VH: QVQLKESGPGLVAPSQSLSITCTVSGFSLIGYDINWVRQPPGKGLEWLGMIWGDGTTDYNSALKSRLSISKDNSKSQVFLKMNSLRTDDTATYSCARGGYYYGTSYYFDYWGQGTTLTVSS
VL: DIQMTQTTSSLSASLGDRVTISCRASQDISNHLNWYQQKPDGTVKLLIYYISRFHSGVPSRFSGSGSGTDYSLTISNLEQEDIATYFCQQSKTLPYTFGGGTKLEIKR
notes: Mouse mAb; also called MU-RN911
With B3 as the binder, how does the “EC50, pERK inhibition, PC-12 (Rat Neuronal), pre-incubation 1 hour, 2/23/11 (RN911)” value [3] read?
Its value is 0.67 nM.

What about the “EC50, pERK inhibition, PC-12 (Rat Neuronal), pre-incubation 1 hour, 3/26/11 (RN911)” value [3] of the same binder?
The value was 0.46 nM.

And the “EC50, pERK inhibition, huTrkA (CHO), pre-incubation 1 hour, 3/26/11 (RN911)” value [3]?
The value was 0.47 nM.

What about the “EC50, pERK inhibition, huTrkA (CHO), pre-incubation 1 hour, 3/31/11 (RN911)” value [3] of the same binder?
The value was 0.62 nM.

And the “EC50, pERK inhibition, huTrkA (CHO), pre-incubation 6 hour, 3/31/11 (RN911)” value [3]?
The value was 0.57 nM.

What about the Ki [4] of the same binder?
Its Ki is 4.2 nM.

And the Kd [5]?
The Kd was 0.755 nM.
